Where “and” joins values, the source holds several entries; their conditions need not be identical. Equal entries are not always repeated. No end group written: not given here.
T1: SNORF62 (Homo sapiens, UniProt Q9HB89)
T1 sequence (Q9HB89 1-426): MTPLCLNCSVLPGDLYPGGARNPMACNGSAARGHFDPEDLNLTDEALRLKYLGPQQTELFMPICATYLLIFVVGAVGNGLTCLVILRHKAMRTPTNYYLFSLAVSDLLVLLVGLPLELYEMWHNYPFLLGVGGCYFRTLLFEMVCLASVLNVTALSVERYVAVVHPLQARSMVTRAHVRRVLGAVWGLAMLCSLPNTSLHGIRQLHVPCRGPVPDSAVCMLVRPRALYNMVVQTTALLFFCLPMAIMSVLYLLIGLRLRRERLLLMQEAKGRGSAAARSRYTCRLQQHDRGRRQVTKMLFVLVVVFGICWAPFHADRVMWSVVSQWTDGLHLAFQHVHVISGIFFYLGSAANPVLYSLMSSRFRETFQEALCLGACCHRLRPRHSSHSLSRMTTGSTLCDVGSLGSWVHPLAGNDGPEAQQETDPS

T2: human SNORF62 receptor (human, UniProt Q9HB89 1-426)
T2 sequence: T1 sequence (Q9HB89 1-426)

B1: [125I]rat NMU-23 (peptide)
peptide: YKVNEYQGPVAPSGGFFLFRPRN-NH2
modifications: also: 125I-labelled, residue not given here
notes: Radioligand from NEN, specific activity 2200 Ci/mmole; also called radioiodinated rat NMU-23

Columns and labels:
[1] = biological target: T3, SNORF72 (Homo sapiens, UniProt Q9GZQ4, A395T); assay: Intracellular Ca2+ release (FLIPR) in SNORF72-transfected COS-7 cells; format: cell-based; settings: stimulation of Ca2+ release, SNORF72-transfected COS-7 cells, n = 2-7 (Table 1A)
T3 construct: expressed in transfected cells; host or cells: COS-7 (transient, DEAE-dextran)
T3 sequence (Q9GZQ4 whole entry A395T): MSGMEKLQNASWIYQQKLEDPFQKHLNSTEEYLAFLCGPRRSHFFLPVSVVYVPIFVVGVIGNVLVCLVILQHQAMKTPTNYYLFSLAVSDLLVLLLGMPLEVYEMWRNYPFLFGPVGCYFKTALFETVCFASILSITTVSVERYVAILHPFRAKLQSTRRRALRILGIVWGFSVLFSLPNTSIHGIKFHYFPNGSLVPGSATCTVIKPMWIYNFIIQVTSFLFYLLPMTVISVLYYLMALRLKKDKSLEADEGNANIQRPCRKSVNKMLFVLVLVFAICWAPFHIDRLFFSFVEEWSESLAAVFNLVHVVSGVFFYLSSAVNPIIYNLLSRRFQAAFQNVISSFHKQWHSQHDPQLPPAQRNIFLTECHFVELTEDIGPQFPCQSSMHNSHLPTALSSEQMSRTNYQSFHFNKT
Description: (§1) A typical protocol for the DEAE-dextran method as applied to COS-7 and HEK293 cells is described as follows. Cells to be used for transfection are split 24 hours prior to the transfection to provide flasks which are 70–80% confluent at the time of transfection. Briefly, 8 μg of receptor DNA plus 8 μg of any additional DNA needed (e.g. Gα protein expression vector, reporter construct, antibiotic resistance marker, mock vector, etc.) are added to 9 ml of complete DMEM plus DEAE-dextran mixture (10 mg/ml in PBS). Cells plated into a T225 flask (sub-confluent) are washed once with PBS and the DNA mixture is added to each flask. The cells are allowed to incubate for 30 minutes at 37° C., 5% CO2. Following the incubation, 36 ml of complete DMEM with 80 μM chloroquine is added to each flask and allowed to incubate an additional 3 hours. The medium is then aspirated and 24 ml of complete medium containing 10% DMSO for exactly 2 minutes and then aspirated. The cells are then washed 2 times with PBS and 30 ml of complete DMEM added to each flask. The cells are then allowed to incubate over night. The next day the cells are harvested by trypsinization and reseeded into 96 well plates.
(§2) Cells expressing the receptor of interest are plated into clear, flat-bottom, black-walled 96-well plates (Costar) at a density of 80,000–150,000 cells per well and allowed to incubate for 48 hr at 5% CO2, 37° C. The growth medium is aspirated and 100 μL of loading medium containing Fluo-3 dye is added to each well. The loading medium contains: 20 mM HEPES (Sigma), 0.1% BSA (Sigma), dye/pluronic acid mixture (e.g. 1 mM Fluo-3/AM (Molecular Probes) and 10% pluronic acid (Molecular Probes) mixed immediately before use), and 2.5 mM probenecid (Sigma)(prepared fresh). The cells are allowed to incubate for about 1 hour at 5% CO2, 37° C.
(§3) The compounds of interest are diluted in wash buffer (Hank's BSS (without phenol red), 20 mM HEPES, 2.5 mM probenecid) to a 4× final concentration and aliquoted into a clear v-bottom plate (Nunc). Following the dye incubation, the cells are washed 4 times to remove excess dye using a Denley plate washer. 100 μL final volume of wash buffer is then added to each cell well. Compounds are added to the cell plates and responses are measured using the FLIPR™ instrument. The data are then collected and analyzed using the FLIPR™ software and Graphpad Prism.
(§4) COS-7 cells were transiently transfected with SNORF62, SNORF72 or vector DNA (mock) as described in Materials and Methods.

[2] = biological target: T1, SNORF62; assay: Intracellular Ca2+ release (FLIPR) in SNORF62-transfected COS-7 cells; format: cell-based; set-up: The SNORF62 cDNA codes for a protein of 426 amino acids; expressed in transfected cells; host or cells: COS-7 (transient, DEAE-dextran); settings: stimulation of Ca2+ release, SNORF62-transfected COS-7 cells, n = 2-7 (Table 1A)
Description: as §1, §2, §3, §4

[3] = biological target: T1, SNORF62; assay: Displacement of [125I]rat NMU-23 binding in SNORF62-transfected COS-7 membranes; set-up: The SNORF62 cDNA codes for a protein of 426 amino acids; expressed in transfected cells; host or cells: COS-7 (transient, DEAE-dextran); settings: binding affinity, SNORF62-transfected COS-7 cells (Table 1A); read-out: SNORF62 Avg Ki
Description: The specifics of preparing such cell membranes may in some cases be determined by the nature of the ensuing assay but typically involve harvesting whole cells and disrupting the cell pellet by sonication in ice cold buffer (e.g. 20 mM Tris HCl, mM EDTA, pH 7.4 at 4° C.). The resulting crude cell lysate is cleared of cell debris by low speed centrifugation at 200×g for 5 min at 4° C. The cleared supernatant is then centrifuged at 40,000×g for 20 min at 4° C., and the resulting membrane pellet is washed by suspending in ice cold buffer and repeating the high speed centrifugation step. The final washed membrane pellet is resuspended in assay buffer. Protein concentrations are determined by the method of Bradford (1976) using bovine serum albumin as a standard. The membranes may be used immediately or frozen for later use.
(§5) Radioligand binding assays were performed by diluting membranes prepared from cells expressing the receptor in 50 mM Tris buffer (pH=7.4 at 0° C.) containing 0.1% bovine serum albumin (Sigma), aprotinin (0.005 mg/ml, Boehringer Mannheim) and bestatin (0.1 mM, Sigma) as protease inhibitors. The final protein concentration in the assay was 12–40 μg/ml. […] The bound ligand was separated from free by filtration through GF/B filters presoaked in 0.5% polyethyleneimine (PEI), using a Tomtec (Wallac) vacuum filtration device. After addition of Ready Safe (Beckman) scintillation fluid, bound radioactivity was quantitated using a Trilux (Wallac) scintillation counter (approximately 40% counting efficiency of bound counts). Data was fit to non-linear curves using GraphPad Prism.
In this manner, agonist or antagonist compounds that bind to the receptor may be identified as they inhibit the binding of the labeled ligand to the membrane protein of cells expressing the said receptor. Non-specific binding was defined as the amount of radioactivity remaining after incubation of membrane protein in the presence of 100 nM of the unlabeled peptide corresponding to the radioligand used. In equilibrium saturation binding assays membrane preparations or intact cells transfected with the receptor are incubated in the presence of increasing concentrations of the labeled compound to determine the binding affinity of the labeled ligand.

[4] = biological target: T1, SNORF62; assay: Calcium-activated Cl- currents in Xenopus oocytes injected with SNORF62 mRNA; format: cell-based; set-up: from linearized plasmids or PCR products containing the complete coding region of the gene; expressed in transfected cells; host or cells: Xenopus laevis oocytes injected with in vitro transcribed SNORF62 mRNA; settings: 1 μM peptide, n=3
Description: Heterologous expression of GPCRs in Xenopus oocytes has been widely used to determine the identity of signaling pathways activated by agonist stimulation (Gundersen et al., 1983; Takahashi et al., 1987). Activation of the phospholipase C (PLC) pathway is assayed by applying a test compound in ND96 solution to oocytes previously injected with mRNA for the human SNORF62 and observing inward currents at a holding potential of approximately −80 mV. The appearance of currents that reverse at −25 mV and display other properties of the Ca^++-activated Cl^− channel is indicative of receptor-acitivation of PLC and release of IP3 and intracellular Ca^++.
In the present invention, oocytes were harvested from Xenopus laevis and injected with mRNA transcripts as previously described (Quick and Lester, 1994; Smith et al., 1997). SNORF62 mRNA transcript was synthesized using the T7 polymerase (“Message Machine”, Ambion) from linearized plasmids or PCR products containing the complete coding region of the gene. Oocytes were injected with 1–50 ng synthetic receptor RNA and incubated for 3–8 days at 17° C. Currents were recorded under dual electrode voltage clamp (Axon Instruments Inc.) with 3 M KCl-filled glass microelectrodes having resistances of 1–2 Mohm. Unless otherwise specified, oocytes were voltage clamped at a holding potential of −80 mV. […]

[5] = biological target: T2, human SNORF62 receptor; assay: cell-based or functional assay
[6] = biological target: T2, human SNORF62 receptor; assay: cell-based or functional assay; remark: listed apart in the source
[7] = biological target: T2, human SNORF62 receptor; assay: cell-based or functional assay; remark: listed apart in the source
[8] = biological target: T4, human SNORF72 receptor (human, UniProt Q9GZQ4 1-415); assay: cell-based or functional assay
T4 sequence (Q9GZQ4 other isoform, or with tags, fused parts or gaps): as the sequence (Q9GZQ4 whole entry A395T) above

[9] = biological target: T2, human SNORF62 receptor; assay: displacement of [125I]rat NMU-23, membranes of SNORF62-transfected COS-7 cells
Description: as §5, with “µg/ml.” for “μg/ml.”

[10] = biological target: T2, human SNORF62 receptor; assay: displacement of [125I]rat NMU-23 (0.05-0.1 nM), membranes of SNORF62-transfected COS-7 cells, n=2
Description: as §5, with “µg/ml.” for “μg/ml.”

[11] = biological target: T4, human SNORF72 receptor; assay: displacement of [125I]rat NMU-23 (0.05-0.1 nM), membranes of SNORF72-transfected COS-7 cells, n=2
Description: as §5, with “µg/ml.” for “μg/ml.”

[12] = biological target: T4, human SNORF72 receptor; assay: cell-based or functional assay; remark: listed apart in the source
[13] = biological target: T4, human SNORF72 receptor; assay: displacement of [125I]rat NMU-23, membranes of SNORF72-transfected COS-7 cells
Description: as §5, with “µg/ml.” for “μg/ml.”

[14] = biological target: T2, human SNORF62 receptor; assay: saturation radioligand binding, membranes of SNORF62-transfected COS-7 cells, n=2
Description: as §5, with “µg/ml.” for “μg/ml.”

[15] = biological target: T4, human SNORF72 receptor; assay: saturation radioligand binding, membranes of SNORF72-transfected COS-7 cells, n=2
Description: as §5, with “µg/ml.” for “μg/ml.”

Molecule | EC50 [1] [nM] | EC50 [2] [nM] | Ki [3] [nM] | current amplitude [4] [nA] | EC50, release of IP second messengers in SNORF62-transfected COS-7 cells [5] [nM] | release of IP second messengers, fold above basal, in SNORF62-transfected COS-7 cells [5] [fold] | AVG EC50 (nM), stimulation of Ca++ release in SNORF62-transfected COS-7 cells (FLIPR) [6] [nM] | Avg EC50 (nM), stimulation of Ca2+ release in SNORF62-transfected COS-7 cells [7] [nM] | Avg EC50 (nM), stimulation of Ca2+ release in SNORF72-transfected COS-7 cells [8] [nM] | Ki [9] [nM] | pKi [10] | pKi [11] | EC50, Ca2+ release in SNORF72-transfected COS-7 cells [12] | Ki [13] [nM] | Kd [14] | Kd [15]
CC[C@H](C)[C@H](NC(=O)[C@@H]1CCCN1C(=O)CNC(=O)[C@H](CCC(N)=O)NC(=O)[C@H](Cc1ccccc1)NC(=O)[C@H](CCC(=O)O)NC(=O)[C@H](CCC(=O)O)NC(=O)[C@H](CC(=O)O)NC(=O)[C@@H](NC(=O)[C@H](CCCCN)NC(=O)[C@@H](N)Cc1ccccc1)C(C)C)C(=O)N[C@H](C(=O)N[C@@H](CO)C(=O)N[C@@H](CCC(N)=O)C(=O)N[C@@H](CC(N)=O)C(=O)N[C@@H](CCCNC(=N)N)C(=O)N[C@@H](CCCNC(=N)N)C(=O)N[C@@H](Cc1ccc(O)cc1)C(=O)N[C@@H](Cc1ccccc1)C(=O)N[C@@H](CC(C)C)C(=O)N[C@@H](Cc1ccccc1)C(=O)N[C@@H](CCCNC(=N)N)C(=O)N1CCC[C@H]1C(=O)N[C@@H](CCCNC(=N)N)C(=O)N[C@@H](CC(N)=O)C(N)=O)C(C)C [porcine NMU-25, FKVDEEFQGPIVSQNRRYFLFRPRN—NH2] | 3 ± 0.7 | 5.2 ± 0.8 | 1.1 ± 0.2 | 2150±330 | – | – | – | – | – | – | – | – | – | – | – | –
FRVDEEFQSPFASQSRGYFLFRPRN-NH2 (also called human neuromedin U-25) [human NMU-25] | – | – | – | – | 0.25 | ~2 | 4 | 4 | 2.4 | 2 | 8.7 | 8.5 | – | – | – | –
YKVNEYQGPVAPSGGFFLFRPRN-NH2 (also called rat neuromedin U-23) [rat NMU-23] | – | – | – | – | 0.23 | – | 2.1 | 2.1 | 5 | 0.5 | 9.4 | 9 | 1.7 nM and 5.1 nM | 0.5 | – | –
B1 | – | – | – | – | – | – | – | – | – | – | – | – | – | – | 0.61 nM and 0.72 nM | 0.81 nM and 0.96 nM

Source: patent US7029857B1, “Processes for obtaining compounds employing SNORF72 receptors” (H. Lundbeck A/S, priority 1999, dated 2006)
